Data published in the RNAGym collection of RNA variant scans (doi:10.7554/elife.90254).

B1: OR4K15 (parent)
chain: GUUAACGGUCAUAGGCCAUGGAAACUAGGAGCACCAUUUCGCUGCCAGUGAAGAAAUGAACAAAGAAAAUCUGGGCCAGGCAGGCAUCAAAAGAAAUAGUCUUGCGCUCAACCAGAAAGUCUGUAAUCAUUUUAAGGGUA

Variants of: B1
Experiment: self-cleavage, relative activity (ratio to wild type); higher = more cleavage; in vitro, sequencing; the parent is a self-cleaving ribozyme

Variant | self-cleavage
A51U U72C | 0.23
A51U U72A | 0.45
G50A G138A | 1.51
A52G A59G | 1.13
A52G A59U | 1.28
A52C U131C | 1.53
U49C A52G | 1.16
A51G A94U | 1.78
U49C C76U | 0.07
U49G A60G | 0.64
A51U U131A | 1.32
A51G G106A | 0
U49G A69G | 0.88
A51G A129C | 0.98
A51G A129G | 1.11
A51G G83U | 0.7
A51G G83A | 1.42
U49G A54G | 1.61
U49G U102C | 1.95
A52C A140G | 1.87
A51G A64G | 1.42
A51G A64U | 1.75
U49A U57C | 1.11
U49A U57G | 0.46

Variant | self-cleavage
U49C A67G | 1.2
A51U G58U | 1.45
U49A U108A | 0.02
U49A U108C | 0.01
U49C G75A | 0.04
A51C U131C | 1.28
G50A A60C | 1.9
U49C A63G | 1.75
G50A U87A | 1.75
U49C A118U | 0.62
U49C A118G | 0.35
A52G A55U | 1.51
A52G A55C | 1.29
A52G A64U | 0.82
A52G A64C | 2.64
A52G A64G | 0.9
A51G A117G | 2.07
A51G A117U | 0.52
U49A A135G | 1.08
A52G C88A | 1.78
U49C U103A | 0.71
U49C C121G | 2.4
U49G U108C | 0.01
A51U U139A | 1.14

Variant | self-cleavage
U49A C61U | 1.38
U49A U72G | 0.14
U49C U124C | 0.71
A51G C105U | 0.12
A52G A69U | 1.25
A52G A140G | 1.63
A52G A140U | 1.15
A51G A56G | 1.22
U49C U130A | 0.28
A51U A54G | 1.36
A52C A60G | 1
A51G A110G | 0.08
A52G A92U | 1.52
A52G A92G | 1.34
A52G A129C | 0.65
U49C A129G | 1.82
U49C A56C | 1.25
U49C A56G | 1.57
A51G U108C | 0.02
U49C A134U | 1.2
U49C A55U | 1.67
U49G U139G | 1.58
U49G U139C | 1.49
U49G U139A | 1.7

Variant | self-cleavage
A52G C121A | 2.07
U49C A64G | 2.02
A51G A62G | 0.33
A51G A62C | 1.58
G50A U108A | 0.01
U49A A82G | 0.52
A51U U100C | 2.13
U49C A66G | 1.55
U49A A114G | 0.25
U49A A69U | 1.92
U49G A118G | 1.14
U49G A116G | 0.64
U49A U70C | 0.3
U49A A90G | 0.81
U49A U87A | 1.78
U49A U87C | 0.22
U49C A114G | 0.42
U49C A114C | 0.03
A51C G99A | 0.94
G50U A66U | 2.16
U49A G79A | 0.12
A51G U122A | 1.85
A51G U72C | 0.38
A51G U72G | 0.25

Variant | self-cleavage
U49C A90G | 0.94
A51U U57G | 0.64
A51C A78G | 0.24
U49A A129G | 0.63
G50A A63G | 1.21
U49C A68C | 1.29
U49C A68U | 1.95
A51G A67G | 1.07
A51U A78U | 0.36
A52G C105A | 0.02
A52G A96G | 1.64
A51G G136A | 2
A52G A86C | 0.77
A52G A86U | 1.33
U49C U57A | 1.03
U49C U57C | 0.57
A51U A110G | 0.23
A51G A126G | 0.71
A51G G74U | 0.37
G50U A114U | 0.08
A51G A55C | 0.42
A51U A66G | 2.03
G50A | 1.68
G50C | 1.54

Variant | self-cleavage
G50U | 1.11
U49G A114G | 0.06
U49A A78U | 0.33
U49C U120A | 1.64
U49C U120C | 0.52
A51C U127C | 1.02
A51C U127A | 2.59
A51U U132C | 1.06
A51U U132G | 1.49
A51G A78G | 0.2
A52C A90G | 0.58
U49C G119A | 1.6
A52C A111G | 0
G50A G104A | 0.1
A51G U131G | 1.08
A51G U131C | 1.25
U49C U97A | 2.12
U49A A67G | 1.13
A51U U87A | 1.92
U49G U132C | 1.1
A51U A64G | 1.28
A51U | 1.5
A51G | 1.36
A51C | 1.43

Variant | self-cleavage
U49C U108A | 0.01
U49A A98C | 1.58
A52G A111C | 0
A52G A111G | 0.03
U49C A51G | 0.9
U49C A51U | 0.99
U49C A51C | 0.34
U49C A86U | 1.68
U49C A86G | 1.03
A52G A62C | 1.53
A51G G138C | 1.66
A52G A110G | 0.17
A51G U87G | 0.43
A51C A67G | 0.66
U49C A140G | 2.12
A51C A117U | 1.28
A52G C112U | 0.01
A52G A91G | 1.01
G50U A51U | 1.95
A51G G84A | 1.78
A51G U139A | 1.48
A52C A129G | 0.62
A51U A91G | 0.5
A52C A54G | 1.34

Variant | self-cleavage
A51G G73A | 0.26
U49C A89C | 1.36
U49C A89G | 1.26
A51G U120G | 2.37
A52G A118U | 0.59
U49G A92G | 0.7
U49C A111G | 0.02
A51U U127C | 0.76
A51U U127A | 1.75
A52G C128A | 0.64
A52C A117G | 1.22
G50A A117G | 1.92
A51U U102C | 1.99
A51U U120C | 0.47
G50U A116G | 0.75
A51G U133A | 1.15
A51G U133G | 1.24
U49C A126G | 1.26
A51C U57G | 1.26
A52G A117G | 1.48
A52G A117C | 0.47
U49C A82G | 0.42
U49C A82U | 0.2
A51U A117G | 2.45

Variant | self-cleavage
U49A U131C | 1.01
U49C A60G | 1.24
U49C U139A | 1.15
U49A U139C | 1.97
U49C A62G | 1.57
A51U A95G | 2
A52G C71G | 0.39
A51U A82G | 0.68
A52G A125U | 0.86
A52G A125G | 0.37
A52C U108C | 0.03
A52C U120C | 0.58
A52G A56G | 0.76
U49C U122G | 1.54
U49C U122A | 1.33
U49C A95G | 1
A51G A60G | 1.2
U49A G75C | 0.07
A51G A86C | 0.65
A51G A86U | 1.56
U49C G74A | 0.09
A51U G83A | 2.1
A52G A98G | 0.8
A51G U124G | 1.05

Variant | self-cleavage
U49C G104A | 0.04
U49C C109U | 0.18
A51U A125G | 0.42
A51U A125U | 1.64
A51U C76U | 0.33
A51U A62G | 1.48
A51U A62U | 1.15
U49A A111G | 0.01
U49A A111C | 0.01
A52G A126G | 0.47
A51U A67G | 1.23
A51U A67U | 2.12
A51G A118G | 1.29
A52C A118G | 0.72
A52G A78G | 0.28
U49C | 1.12
U49G | 1.13
A52G C113U | 0.14
A51G A135U | 0.7
A52C A64G | 1.38
A51G C77U | 1.46
U49C G79A | 0.13
U49C A59G | 0.7
U49C A59C | 0.9

Variant | self-cleavage
U49C A59U | 1.24
U49C C105A | 0.03
A51G U103C | 1.09
A51U A63G | 1.62
G50A U133C | 1.88
A51U G137A | 1.43
G50C A116G | 0.9
G50U U124A | 0.91
A52G A60C | 0.73
U49A A63G | 1.46
A52G A95U | 1.37
A52G A95G | 2.12
A51G A91U | 1.61
A52G A54G | 1.41
A51G G65A | 1.12
A51G C128U | 2.26
A51G U127C | 1.04
A51G U127A | 2.09
A51C A95U | 1.79
A51C A95G | 1.65
A51G A68G | 0.71
A51G A68U | 1.9
A51G A68C | 1.46
A51C A52G | 1.83

Variant | self-cleavage
U49G A68G | 1.76
A51G U57C | 0.93
A51G U97C | 1.75
U49A A118U | 0.7
U49A G74A | 0.24
A52C G75U | 0.33
U49A A126U | 1.59
U49A A64G | 1.2
A51G A66G | 1.5
A52C A91G | 1.96
U49A A140G | 1.41
U49C U70A | 1.1
A51U A55U | 1.52
U49A U122A | 1.32
U49A U122C | 0.56
A51G A98G | 0.29
A52C A68G | 0.55
U49C G137A | 1.95
U49C G137U | 2.29
G50A A52G | 2.63
U49C A135U | 2.28
A51G A111G | 0.03
U49C U132A | 1.65
A51U U130C | 1.62

Variant | self-cleavage
A51U U130A | 1.4
U49A A60G | 1.32
U49G A90G | 0.75
U49A A56G | 1.74
A51G A114G | 1.1
A52G A89U | 1.7
A52G A89G | 1.84
U49A A86G | 1.19
A51G C76A | 0.07
A51G A54U | 1.4
A51U C101U | 0.72
A51G U100C | 1.87
A51G U100A | 0.56
A52G C109U | 0.71
U49A A116G | 0.3
U49A A95G | 1.76
U49C U87A | 2.09
A51G A95G | 1.7
A51C U124C | 0.98
A51G A59U | 1.74
A51U G74U | 0.25
A51G A89U | 1.41
A51G A89G | 0.95
U49C A94G | 1.44

Variant | self-cleavage
U49A U102A | 0.95
A52C A67U | 1.67
U49A A117G | 0.49
A51G A96U | 0.46
A51U A52U | 1.99
A51U A52G | 0.93
U49G U122C | 0.39
U49G U122A | 1.35
A52G A116G | 0.91
A52G A116C | 0.11
A51U A59G | 0.95
A51G C61G | 0.99
A51C U72A | 0.19
U49A A89G | 0.47
U49G A66G | 1.77
U49C G138A | 1.86
A51G U130A | 1.63
A51G U130G | 0.67
U49C U72A | 0.15
A51G U70C | 0.95
U49C C128A | 1.11
U49A A62U | 1.92
